In US20020164667A1 (VEGENICS, published 2002):
Ends that are not written are not given here.

T1: human VEGFR3-Fc fusion protein (human, UniProt P35916 25-329, limits assumed)
T1 construct: domain: first three Ig homology domain of the extracellular portion; Coated on microtiter wells at 1 ug/ml; not shown: Fc tail of human IgG1, cloned in frame after the VEGFR3 Ig homology domains
T1 sequence (looked up): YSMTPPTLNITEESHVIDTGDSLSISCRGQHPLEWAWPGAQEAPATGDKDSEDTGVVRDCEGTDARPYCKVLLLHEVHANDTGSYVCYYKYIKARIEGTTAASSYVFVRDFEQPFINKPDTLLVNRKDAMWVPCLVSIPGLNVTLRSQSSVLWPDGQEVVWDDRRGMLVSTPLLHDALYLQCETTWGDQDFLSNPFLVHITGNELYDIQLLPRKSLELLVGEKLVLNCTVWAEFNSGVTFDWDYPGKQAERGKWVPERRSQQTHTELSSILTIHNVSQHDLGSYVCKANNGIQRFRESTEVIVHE


target: T1, human VEGFR3-Fc fusion protein; test: phage attachment assay, VEGFR3-Fc-coated versus BSA-blocked microtiter wells
Method: VEGFR3-Fc fusionprotein (1 μg/ml) was coated on microtiter wells (96-well plate) overnight at 4° C. Wells were then saturated with 5% BSA. In the first panning, the libraries were incubated overnight at 4° C. in 50 mM TBS buffer (Tris-HCl/0.1M NaCl, pH 7.5) containing 1% BSA. After extensive washing, the bounded phages were eluted with a low pH buffer (0.1M glycine-HCl, 0.1%BSA, 0.05% phenol red, pH2.2)(Koivunen et al., Methods Mol. Biol. 129:3-17,1999; Koivunenet al, Biotechnol., 18(8):768-74,1999; Smoth et al., Methods Enzymol., 217:228-357, 1993). In subsequent pannings, the amplified phages using the K91kan E. coli.(Koivunen et al., Methods Mol. Biol. 129:3-17, 1999) were allowed to bind for 1 h at room temperature. Randomly selected clones from the fourth round of panning were amplified overnight and sequenced using ABIPRISM 310 Genetic Analyzer. The binding of each clone to VEGFR-3 was verified by an attachment assay, in which the cloned phage were incubated for 60 minutes in VEGFR3-Fc-coated or BSA-blocked microtiter wells. Thewells were washed ten times with TBS containing 0.5% Tween-20. The bound phages were titered by calculating the number of colonies.

binding result	Binder
binds	CRALDSALAC (also called CX8C library clone) [CRALDSALAC (SEQ ID NO: 58)]
binds	CSRWRILGC (also called CX7C library clone) [CSRWRILGC (SEQ ID NO: 61)]
binds	SAVFRGRWL (also called X9 library clone) [SAVFRGRWL (SEQ ID NO: 42)]
binds	CWQLGRNWIC (also called CX8C library clone) [CWQLGRNWIC (SEQ ID NO: 55)]
binds	WFSASLRFR (also called X9 library clone) [WFSASLRFR (SEQ ID NO: 43)]
binds	CRKVWDIRC (also called CX7C library clone) [CRKVWDIRC (SEQ ID NO: 64)]
binds	CYGFEAAWC (also called CX7C library clone) [CYGFEAAWC (SEQ ID NO: 59)]
binds	RWRGNAYPG (also called X9 library clone) [RWRGNAYPG (SEQ ID NO: 41)]
binds	SCYWRDTWF (also called X9 library clone) [SCYWRDTWF (SEQ ID NO: 37)]
binds	KVGWSSPDW (also called X9 library clone) [KVGWSSPDW (SEQ ID NO: 38)]
binds	CVEVQITQEC (also called CX8C library clone) [CVEVQITQEC (SEQ ID NO: 56)]
binds	CAGKASSLWC (also called CX8C library clone) [CAGKASSLWC (SEQ ID NO: 57)]
binds	FVGWTKVLG (also called X9 library clone) [FVGWTKVLG (SEQ ID NO: 39)]
binds	CGQMCTVWCSSGC (also called CX3CX3CX3C library clone) [CGQMCTVWCSSGC (SEQ ID NO: 66)]
binds	CHKWQKRQC (also called CX7C library clone) [CHKWQKRQC (SEQ ID NO: 62)]
binds	SGYWWDTWF (also called X9 library clone) [SGYWWDTWF (SEQ ID NO: 36)]
binds	YSSSMRWRH (also called X9 library clone) [YSSSMRWRH (SEQ ID NO: 40)]
binds	CYGFLWGMC (not fully specified (bridges); cysteine pairing not given here; also: displayed on fUSE5 phage as coat protein fusion, flanking residues not given here, also called CX7C library clone) [CYGFLWGMC (SEQ ID NO: 60)]
binds	CMDPWGGWC (also called CX7C library clone) [CMDPWGGWC (SEQ ID NO: 63)]
binds	CVWDHGVC [CVWDHGVC (SEQ ID NO: 65)]
